In patent publication US20210214444A1 (TAYU HUAXIA BIOTECH MEDICAL GROUP, published 2021):

Biological target: hPD-L1 (Fortebio Octet assay of Example 3) (human, UniProt Q9NZQ7 19-238, limits assumed)
Experiment: BLI, Fortebio Octet; format not stated

Chain of hPD-L1 (Fortebio Octet assay of Example 3) (Q9NZQ7 19-238 limits assumed): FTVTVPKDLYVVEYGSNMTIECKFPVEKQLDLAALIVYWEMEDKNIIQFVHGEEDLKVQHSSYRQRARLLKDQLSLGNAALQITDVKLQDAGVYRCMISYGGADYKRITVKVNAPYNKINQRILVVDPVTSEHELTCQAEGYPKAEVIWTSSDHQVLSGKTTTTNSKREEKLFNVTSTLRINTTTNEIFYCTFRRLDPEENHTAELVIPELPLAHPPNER

koff: 2.72e-05 s⁻¹
B1: humanized anti-hPD-L1 antibody variant 2 (antibody, V domains shown)
VH: QVQLVQSGAEVKKPGASVKVSCKASGFNIKDTYMYWVRQAPGQGLEWMGRIDPANDNTKYAQKFQGRVTITADTSTSTAYMELSSLRSEDTAVYYCARAKNLLNYFDYWGQGTLVTVSS
VL: DIQMTQSPSSLSASVGDRVTITCRASQEISGYLSWLQQKPGKAPKRLIYATSTLQSGVPSRFSGSRSGTDYTLTISSLQPEDFATYYCLQYAIYPLTFGQGTKLEIKR
notes: Human IgG1; also called Humanized VH 1 + Humanized VL2; anti-PD-L1 IgG1
